Our source for the relative potency (IVRP; inflection point of test vaccine divided by that of reference vaccine) values is patent US20240238401A1.

For this experiment, the target named is mAb binding to Consensus GII.4 VLPs (BioGenes; IgG clone #1-9-1). Nature of the experiment: IVRP competition ELISA; serially diluted thin-film freeze-dried and reconstituted vaccine (4% trehalose or 5% sucrose, bulk or single-vial TFFD) competes for mAb against plate-coated VLP; reference is undried vaccine. (ELISA stands for enzyme-linked immunosorbent assay.)

Turning to “Norovirus genotype GII.4 Consensus VLP (from UniProt P54635 1-539)”, the relative potency (IVRP; inflection point of test vaccine divided by that of reference vaccine) was 49 to 73%.
